The values below come from patent US20030143158A1 (DYAX, published 2003).

As a reminder, the Kd is the equilibrium constant for the complex coming apart.

Assay [1] concerns the target DD(E), soluble fibrin-derived polypeptide (complex of DD dimer with the central E domain of fibrin) (human) (UniProt P02671). In words: fluorescence polarization (anisotropy), fluorescein-labeled peptide with DD(E). For orientation: Fluorescence polarisation rises when a labelled molecule tumbles more slowly, as on binding a larger partner.
For assay [2] the target is unchanged. Briefly: fluorescence anisotropy (polarization): fluorescein-labeled peptide titrated with DD(E) protein.
The target of assay [3] is T1, fibrin (UniProt P02671 36-629; P02675 45-491; P02679 27-437, limits assumed).
T1 construct: Polymerised fibrin formed on 96-well plates from fibrinogen and thrombin; also called dried fibrin; fibrin target
T1 sequence (looked up) 1: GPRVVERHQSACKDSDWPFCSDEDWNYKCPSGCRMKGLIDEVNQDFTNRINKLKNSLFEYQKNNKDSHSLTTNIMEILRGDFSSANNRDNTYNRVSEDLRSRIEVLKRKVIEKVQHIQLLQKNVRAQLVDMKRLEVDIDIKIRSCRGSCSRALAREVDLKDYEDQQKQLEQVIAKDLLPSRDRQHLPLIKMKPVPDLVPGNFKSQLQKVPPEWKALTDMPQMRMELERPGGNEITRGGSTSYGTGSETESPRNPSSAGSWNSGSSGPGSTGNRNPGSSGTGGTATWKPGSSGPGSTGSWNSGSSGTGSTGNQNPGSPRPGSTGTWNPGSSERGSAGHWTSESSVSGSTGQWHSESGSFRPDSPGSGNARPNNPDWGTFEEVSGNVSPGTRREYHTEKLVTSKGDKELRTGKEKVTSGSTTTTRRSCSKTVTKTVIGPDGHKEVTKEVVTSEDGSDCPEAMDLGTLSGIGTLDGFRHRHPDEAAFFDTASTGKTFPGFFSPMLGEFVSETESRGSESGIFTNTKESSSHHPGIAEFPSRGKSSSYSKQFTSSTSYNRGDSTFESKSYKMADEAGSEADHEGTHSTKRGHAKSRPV
T1 sequence (looked up) 2: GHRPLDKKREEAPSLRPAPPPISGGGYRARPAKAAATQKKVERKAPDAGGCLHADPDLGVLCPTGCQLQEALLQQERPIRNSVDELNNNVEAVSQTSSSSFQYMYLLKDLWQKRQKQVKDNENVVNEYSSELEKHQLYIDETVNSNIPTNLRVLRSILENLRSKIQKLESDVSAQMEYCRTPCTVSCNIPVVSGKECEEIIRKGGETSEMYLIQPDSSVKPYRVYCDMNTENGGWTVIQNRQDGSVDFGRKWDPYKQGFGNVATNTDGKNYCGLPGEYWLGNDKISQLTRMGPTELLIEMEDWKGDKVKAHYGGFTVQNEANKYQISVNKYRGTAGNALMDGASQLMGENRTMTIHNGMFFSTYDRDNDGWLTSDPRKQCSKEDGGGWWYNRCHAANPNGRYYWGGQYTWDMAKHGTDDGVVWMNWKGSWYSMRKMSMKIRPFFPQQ
T1 sequence (looked up) 3: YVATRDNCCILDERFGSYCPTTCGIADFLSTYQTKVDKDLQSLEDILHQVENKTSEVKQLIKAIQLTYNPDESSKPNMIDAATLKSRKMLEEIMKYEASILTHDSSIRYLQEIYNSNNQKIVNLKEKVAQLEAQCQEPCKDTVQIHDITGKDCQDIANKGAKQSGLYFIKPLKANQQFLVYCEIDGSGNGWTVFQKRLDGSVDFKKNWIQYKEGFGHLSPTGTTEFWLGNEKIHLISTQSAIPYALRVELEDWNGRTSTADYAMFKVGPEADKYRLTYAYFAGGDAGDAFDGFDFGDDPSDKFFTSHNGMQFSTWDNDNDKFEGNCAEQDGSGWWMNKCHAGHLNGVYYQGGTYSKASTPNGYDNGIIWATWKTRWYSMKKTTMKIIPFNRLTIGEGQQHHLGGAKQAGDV
Briefly: equilibrium binding to dried fibrin plates, free peptide measured by mass spectrometry.
Description: A fibrinogen solution was prepared at 10 mg/ml (or at twice the concentration of fibrin desired) in TBS buffer (50 mM Tris, 150 mM NaCl, pH 7.4). The fibrinogen solution typically contained ˜17 mM citrate. Subsequently, a solution was prepared containing 2 U/ml thrombin, 20 mM CaCl₂, and 5 mM ε-aminocaproic acid in TBS. The fibrinogen solution and thrombin solution were mixed 1:1 in the wells of a 96-well plate, aliquoting 50 μL of each solution in each well (total volume=100 μL). The plates were evaporated to dryness overnight at 37° C. The polypeptide to be tested, dissolved in water, was added to each well at concentrations between 1-200 μM. […] The plate containing the peptide and (rehydrated) dried fibrin was covered and incubated at 37° C. on a shaker table for 2 hours.
The supernatant in each well was removed by pipette and the concentration of the polypeptide was measured by mass spectrometry. The ion current detected at the mass of the peptide was monitored after injection of a sample into the mass spectrometer. The area-under-the-peak was quantified and compared to standards of known concentration. The concentration of peptide in the supernatant is equal to the concentration of free peptide. The concentration of bound peptide was determined by subtracting the concentration of free peptide from the total (starting) concentration. […]

In assay [4] the target is T2, fibrinogen (UniProt P02671 20-629; P02675 31-491; P02679 27-437, limits assumed).
T2 construct: Biotinylated and immobilised through streptavidin for ELISA
T2 sequence (looked up) 1: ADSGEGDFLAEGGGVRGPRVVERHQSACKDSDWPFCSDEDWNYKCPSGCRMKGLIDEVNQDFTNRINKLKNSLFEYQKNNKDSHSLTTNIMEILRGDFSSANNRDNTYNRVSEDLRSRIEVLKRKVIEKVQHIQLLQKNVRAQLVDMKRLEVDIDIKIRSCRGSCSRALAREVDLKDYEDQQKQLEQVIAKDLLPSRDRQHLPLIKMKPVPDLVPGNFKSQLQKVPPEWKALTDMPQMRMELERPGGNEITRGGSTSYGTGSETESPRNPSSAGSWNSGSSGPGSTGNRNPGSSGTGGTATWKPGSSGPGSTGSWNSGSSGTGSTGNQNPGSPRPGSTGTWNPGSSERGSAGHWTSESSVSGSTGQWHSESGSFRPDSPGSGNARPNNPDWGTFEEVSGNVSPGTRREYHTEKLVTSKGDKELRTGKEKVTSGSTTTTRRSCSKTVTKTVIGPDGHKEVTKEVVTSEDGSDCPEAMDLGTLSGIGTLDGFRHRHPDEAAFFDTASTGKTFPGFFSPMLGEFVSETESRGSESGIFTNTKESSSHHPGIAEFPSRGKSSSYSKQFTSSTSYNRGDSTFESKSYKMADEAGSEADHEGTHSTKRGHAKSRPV
T2 sequence (looked up) 2: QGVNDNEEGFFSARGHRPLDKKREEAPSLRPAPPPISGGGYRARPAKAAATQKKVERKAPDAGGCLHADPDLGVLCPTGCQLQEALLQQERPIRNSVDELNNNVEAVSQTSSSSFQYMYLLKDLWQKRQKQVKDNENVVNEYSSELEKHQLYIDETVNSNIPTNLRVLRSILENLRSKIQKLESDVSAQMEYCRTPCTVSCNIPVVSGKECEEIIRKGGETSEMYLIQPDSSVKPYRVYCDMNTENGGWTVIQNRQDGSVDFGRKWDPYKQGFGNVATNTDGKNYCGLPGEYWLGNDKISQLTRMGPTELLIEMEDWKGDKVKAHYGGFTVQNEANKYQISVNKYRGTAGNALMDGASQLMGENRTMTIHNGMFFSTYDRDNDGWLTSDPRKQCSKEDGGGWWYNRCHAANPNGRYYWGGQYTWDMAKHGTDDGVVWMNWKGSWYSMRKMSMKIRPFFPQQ
T2 sequence (looked up) 3: T1 sequence (looked up) 3
Briefly: phage ELISA on immobilised fibrinogen. Here is the method: After five rounds of selection, the eluted phage were propagated and a portion plated to isolate phage plaques arising from individual clones. Ninety such clones were selected randomly, propagated, and tested individually for binding to fibrin in a dried fibrin plate assay. Dried fibrin plates were prepared as described above for the library screening. Phage samples (˜10⁹ phage each) were incubated in the dried fibrin plate wells in binding buffer (50 mM Tris, 150 mM NaCl, 2 mM CaCl₂, 0.05% Tween-20) containing 0.1% HSA. After 1 hour, the plates were washed 5 times with binding buffer. Anti-M13 antibody conjugated to horseradish peroxidase (Pharmacia) was added at 1/5000 dilution in binding buffer to the wells and incubated with the fibrin for 1 hour. The wells were again washed 5 times with binding buffer and the presence of the antibody/phage/fibrin complex was measured with HRP calorimetric reagents (3,3′,5,5′-tetramethylbenzidine (TMB) and […]). A high absorbance at 595 nm (due to oxidized TMB) was indicative of a tight phage/fibrin interaction, and phage clones corresponding to those wells were identified as bearing fibrin-binding moieties.
These fibrin-binding positive clones were subjected to several secondary ELISA assays. These assays followed a similar protocol to that detailed above for the dried fibrin ELISA assay, the only variations being the method of target immobilization and the omission of HSA from binding and wash buffers. A screen against DD(E) acted as a further confirmation of fibrin binding activity. […] Finally, ELISAs to assay binding to immobilized HSA (passively bound to the polystyrene plate) and a target-free microtiter plate were controls to eliminate phage that bound promiscuously or nonspecifically.
The ELISAs were performed as described above.
Background: ELISA stands for enzyme-linked immunosorbent assay.

Ends that are not written are not given here. fluorescein = fluorescein label on the lysine side chain

B1: synthetic fibrin-binding peptide DX-303 (peptide)
peptide: Ac-WQPCPWESWTFCWDPGGGK(fluorescein)-NH2
modifications: not fully specified; printed as Ac-WQPCPWESWTFCWDPGGGK(fluorescein)-NH2; cysteine pairing not given here
With B1, the Kd in assay [1] and in assay [2] was 500 nM in each case.

B2: synthetic peptide DX-101 (peptide)
peptide: AEGTGSQWECPYGLCWIQAPGK
modifications: not fully specified (bridges); printed as Ala-Glu-Gly-Thr-Gly-Ser-Gln-Trp-Glu-Cys-Pro-Tyr-Gly-Leu-Cys-Trp-Ile-Gln-Ala-Pro-Gly-Lys; cysteine pairing not given here
In assay [3], B2 displayed a Kd of 700 nM. In the case of WKACPGEDWLFCWGS [phage isolate 002-37-H02], the binding result in assay [4] is “no binding”.

B3: phage isolate 002-35-E01 (peptide)
peptide: WELCSDENWLWCWPH
modifications: not fully specified (bridges); cysteine pairing not given here; also: displayed on M13 phage
notes: The two Cys are believed to form a disulfide
For the molecule B3, the binding result in assay [4] is recorded as “no binding”. The same measure, in the same setting: the value for WQPCPWESWTFCWDP [phage isolate 002-37-C11] was “no binding”; that for WMMCPMSEWLYCWSA [phage isolate 002-36-A02] was “no binding”. As to RAPCDYYGTCVEL [phage isolate 002-36-H04], the binding result in assay [4] is reported as “no binding”.

For WAPCQEEPWLFCFHG [phage isolate 002-37-D02], in assay [4], the binding result was “no binding”.

B4: synthetic fibrin-binding peptide DX-304 (peptide)
peptide: Ac-WAPCQEEPWLFCFHGGGGK(fluorescein)-NH2
modifications: not fully specified; printed as Ac-WAPCQEEPWLFCFHGGGGK(fluorescein)-NH2; cysteine pairing not given here
For B4, the Kd was found to be 400 nM in assay [1] and 350 nM in assay [2].
